From patent US20240010721A1 (HARBOUR BIOMED SHANGHAI, published 2024)
Substitutions are numbered along the chain they refer to.

B1: PR001353 (antibody, V domains shown)
VH: QVQLVESGGGVVQPGRSLRLSCVASGFTFSSYGMHWVRQAPGKGLEWVSVAWYDGISKDYADSVKGRFTISRDNSMNTLFLQMNSLRAEDTAVYYCAREQARSFDLWGRGTLVTVSS
VL: not shown
notes: fully human IgG1, kappa
B2: PR001416 (antibody, human IgG1, kappa, V domains shown)
VH: B1 VH with V23A, S31T, S49A, A51I, I56S, S57D, N74T, M76K, F80Y
VL: DIVMTQSPSTLSASVGDRVTITCRASQTINNWLAWYQQKPGKAPKLLIYKASSLESGVPSRFSGSGSGTEFTLTISSLQPDDFATYYCQQYNSYSPMYTFGQGTKVEIKR
notes: fully human IgG1, kappa
B3: PR001355 (antibody, human IgG1, kappa, V domains shown)
VH: QVQLVQSGGGLVQPGGSLRLSCAASGFTFSSYGMHWVRQAPGKGLEWVAVIWYDGSNKDYADSVKGRFTISRDTSKNTLYLQMNSLRAEDTAVYYCVREQARSFDLWGRGTLVTVSS
VL: B2 VL with V3Q, T10S, I29M, F83S, V106L
notes: fully human IgG1, kappa
B4: PR001356 (antibody, human IgG1, kappa, V domains shown)
VH: B1 VH with V23A, S49A, I56V, K58E, S75A, M76K, F80Y
VL: B2 VL with T28S, N92K
notes: fully human IgG1, kappa; also called anti-ROR1 1015M2-E6 hIgG1; PR001356(WT)
B5: PR001359 (antibody, human IgG1, kappa, V domains shown)
VH: B3 VH with Q6E, L11V, G16R, S31T, I51T, N57D, V97A
VL: B2 VL with T28S, I29V, N92K
notes: fully human IgG1, kappa
B6: PR001364 (antibody, human IgG1, kappa, V domains shown)
VH: B3 VH with Q1E, V5L, Q6E, L11V, G16R, Y32F, N57D, V97A
VL: B2 VL
notes: fully human IgG1, kappa; also called anti-ROR1 1015M3-D8 hIgG1; PR001364(WT)
B7: PR001369 (antibody, human IgG1, kappa, V domains shown)
VH: B3 VH with Q6E, L11V, G16R, S31N, M34I, V50I, I51M, K58T, Y80F, V97A
VL: B2 VL
notes: fully human IgG1, kappa; also called anti-ROR1 1015M3-H10 hIgG1; PR001369(WT)
B8: PR001415 (antibody, human IgG1, kappa, V domains shown)
VH: B3 VH with Q1E, Q6E, L11V, G16R, S31N, Y32S, V50I, I51M, V97A
VL: B2 VL
notes: fully human IgG1, kappa
B9: PR001417 (antibody, V domains shown)
VH: QVQLVESGGGVVQPGRSLRLSCAASGFSFSSYAMHWVRQAPGRGLEWVAVIWYDGGDEDYIDSVKGRFTISRDDSKNTLYLQMNSLRAEDTAVYYCAREQARSFDLWGRGTLVTVSS
VL: B2 VL with I2V, T28S, N31S
notes: fully human IgG1, kappa
B10: PR001418 (antibody, human IgG1, kappa, V domains shown)
VH: B3 VH with Q6E, L11V, G16R, N57D, V97A
VL: B2 VL with V106L
notes: fully human IgG1, kappa
B11: PR001419 (antibody, V domains shown)
VH: B1 VH with V23A, S49A, V50I, A51I, D59N, N74M, M76N, L79V, F80Y, R98K
VL: not shown
notes: fully human IgG1, kappa
B12: PR001366 (antibody, V domains shown)
VH: QVQLVESGGGVVQPGRSLRLSCTASGFTFSSYGMHWVRQAPGKGLEWVAVKWYDGISQNFADSVKGRFTISRDNSKNTLYLQMNSLRAEDTAVYYCARDLARSFDIWGRGTLVTVSS
VL: B2 VL with V3Q, M4L, T28S, N31S, N92K, E107D
notes: fully human IgG1, kappa

What follows are binders tested against T1, hROR2ECD-his (human, UniProt Q01974 34-403) (assay: ELISA, plate coated with hROR2 ECD-his).
T1 construct: extracellular domain; bought, Acrobiosystems R02-H52E5; also called huROR2-his
Protocol: (§1) Screening by ELISA assay: 96-well plates (Corning 9018) were coated with 1 μg/mL hROR1 ECD-his/hROR2 ECD-his/mROR1 ECD-his proteins prepared with PBS in Example 1a above and incubated at 4° C. overnight. The liquid was then discarded, and the plates were washed 3 times with PBST, blocked with 5% milk for 2 h at room temperature, and washed 3 times with PBST. The taken supernatant was added at 100 μL/well, and the plates were incubated at room temperature for 1 h, followed by washing 3 times with PBST. 100 μL/well of secondary antibody (Sigma, Cat#: A8592) was added, the plates were incubated at room temperature for 1 h, and then washed. TMB was then added to the plates at 100 μL/well and incubated for 15 min at room temperature. Thereafter, the reaction was terminated and data were read.
(§2) a. Results of ELISA assay (the ELISA assay was performed according to the same procedures as in Example 2c, except that the added samples were recombinant antibodies and the secondary antibody was a-Fc (Genscript, Cat#: A01854))
The corresponding values in the table are the measured median fluorescence intensity (MFI).

T1 sequence (Q01974 34-403): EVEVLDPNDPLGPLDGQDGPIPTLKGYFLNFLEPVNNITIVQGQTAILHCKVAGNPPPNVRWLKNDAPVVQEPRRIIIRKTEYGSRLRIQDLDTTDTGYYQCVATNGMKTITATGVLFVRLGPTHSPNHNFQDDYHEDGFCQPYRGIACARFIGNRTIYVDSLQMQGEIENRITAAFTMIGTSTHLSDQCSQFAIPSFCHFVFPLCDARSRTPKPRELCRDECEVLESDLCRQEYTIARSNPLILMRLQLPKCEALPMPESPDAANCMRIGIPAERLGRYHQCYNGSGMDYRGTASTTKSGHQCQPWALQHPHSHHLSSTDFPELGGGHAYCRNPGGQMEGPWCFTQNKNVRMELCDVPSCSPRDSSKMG

Row | Binder | binding result
1 | B1 | no binding
2 | B2 | no binding
3 | B3 | no binding
4 | B4 | no binding
5 | B5 | no binding
6 | B6 | no binding
7 | B7 | no binding
8 | B8 | no binding
9 | B9 | no binding
10 | B10 | no binding
11 | B11 | no binding
12 | B12 | no binding

These binders were tested against T2, human ROR1 (hROR1) on cells (human, UniProt Q01973 30-937) (assay: flow cytometry (FACS) on A549 cells (endogenous ROR1), antibody 0.01-100 nM, median fluorescence intensity).
T2 construct: whole, on cells; the cell line is named under assay; also called HEK293T-hROR1; 293T-hROR1
Protocol: (§3) The binding properties were characterized by FACS. The recombinant antibodies obtained above were serially diluted to 9 different concentrations and incubated for 1 h, and then determined for the binding ability with HEK293T-hROR1, CHO-K1-cynoROR1 and A549 cell lines (endogenously expressing ROR1), respectively. The secondary antibody was then incubated for 1 h. The results are shown in FIG. 4-6 and Table 7-2 below.

T2 sequence (Q01973 30-937): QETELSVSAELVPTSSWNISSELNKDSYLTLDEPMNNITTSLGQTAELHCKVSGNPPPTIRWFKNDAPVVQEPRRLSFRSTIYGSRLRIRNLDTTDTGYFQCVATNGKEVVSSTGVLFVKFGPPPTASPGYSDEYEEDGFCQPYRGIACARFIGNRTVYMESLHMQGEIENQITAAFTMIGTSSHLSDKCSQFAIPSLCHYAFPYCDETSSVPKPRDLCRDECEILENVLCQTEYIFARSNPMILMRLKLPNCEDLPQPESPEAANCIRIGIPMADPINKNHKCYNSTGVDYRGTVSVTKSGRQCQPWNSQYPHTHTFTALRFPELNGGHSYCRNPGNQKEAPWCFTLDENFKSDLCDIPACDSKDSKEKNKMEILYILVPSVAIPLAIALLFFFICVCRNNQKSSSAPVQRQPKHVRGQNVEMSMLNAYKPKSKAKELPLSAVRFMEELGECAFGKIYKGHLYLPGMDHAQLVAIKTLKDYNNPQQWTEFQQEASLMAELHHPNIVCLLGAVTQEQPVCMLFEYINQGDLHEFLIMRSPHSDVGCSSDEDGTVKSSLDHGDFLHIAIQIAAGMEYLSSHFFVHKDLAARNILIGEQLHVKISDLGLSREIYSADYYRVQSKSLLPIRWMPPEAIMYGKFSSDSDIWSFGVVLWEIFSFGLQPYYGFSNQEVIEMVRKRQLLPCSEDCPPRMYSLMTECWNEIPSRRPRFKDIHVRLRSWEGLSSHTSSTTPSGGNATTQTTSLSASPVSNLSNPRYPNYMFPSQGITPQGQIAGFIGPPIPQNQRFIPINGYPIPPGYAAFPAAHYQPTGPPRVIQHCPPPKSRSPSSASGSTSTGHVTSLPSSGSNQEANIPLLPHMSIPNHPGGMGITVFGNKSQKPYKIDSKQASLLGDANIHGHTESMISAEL

Row | Binder | EC50 (read off the curve)
13 | B2 | ~0.4 nM
14 | B8 | ~0.4 nM
15 | B9 | ~0.9 nM
16 | B10 | ~0.4 nM
17 | B11 | ~0.2 nM

What follows are binders tested against T3, Human ROR1-ECD-his (human, UniProt Q01973 30-406) (assay: ELISA, plate coated with hROR1 ECD-his).
T3 construct: extracellular domain; bought, Acrobiosystems RO1-H522y; also called hROR1-ECD-his; hROR1 ECD-his
Protocol: as §1, §2

T3 sequence (Q01973 30-406): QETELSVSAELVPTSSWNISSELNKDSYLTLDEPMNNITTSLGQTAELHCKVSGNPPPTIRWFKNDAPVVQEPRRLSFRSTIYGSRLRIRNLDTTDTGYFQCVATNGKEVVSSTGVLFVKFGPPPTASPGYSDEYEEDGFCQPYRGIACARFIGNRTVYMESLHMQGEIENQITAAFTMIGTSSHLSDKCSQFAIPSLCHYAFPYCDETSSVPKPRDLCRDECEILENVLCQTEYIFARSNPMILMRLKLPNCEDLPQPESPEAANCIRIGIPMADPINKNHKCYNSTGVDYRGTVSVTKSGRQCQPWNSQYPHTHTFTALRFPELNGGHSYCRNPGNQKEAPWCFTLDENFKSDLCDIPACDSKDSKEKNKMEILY

Row | Binder | ELISA signal (called MFI)
18 | B1 | 2.54
19 | B2 | 2.45
20 | B3 | 2.54
21 | B4 | 2.38
22 | B5 | 2.39
23 | B6 | 2.38
24 | B7 | 2.48
25 | B8 | 2.61
26 | B9 | 2.38
27 | B10 | 2.42
28 | B11 | 2.44
29 | B12 | 2.24

These binders were tested against T2, human ROR1 (hROR1) on cells (assay: FACS, Panc-1 cells).

Row | Binder | MFI
30 | B4 | 5590 MFI
31 | B6 | 4960 MFI
32 | B7 | 6230 MFI

The binders below were run against T4, ROR1 (antigen of the KD determination and of the Octet dissociation measurement) (UniProt Q01973 30-403, limits assumed) (assay: Octet, antigen form not stated).
T4 sequence (Q01973 30-403 limits assumed): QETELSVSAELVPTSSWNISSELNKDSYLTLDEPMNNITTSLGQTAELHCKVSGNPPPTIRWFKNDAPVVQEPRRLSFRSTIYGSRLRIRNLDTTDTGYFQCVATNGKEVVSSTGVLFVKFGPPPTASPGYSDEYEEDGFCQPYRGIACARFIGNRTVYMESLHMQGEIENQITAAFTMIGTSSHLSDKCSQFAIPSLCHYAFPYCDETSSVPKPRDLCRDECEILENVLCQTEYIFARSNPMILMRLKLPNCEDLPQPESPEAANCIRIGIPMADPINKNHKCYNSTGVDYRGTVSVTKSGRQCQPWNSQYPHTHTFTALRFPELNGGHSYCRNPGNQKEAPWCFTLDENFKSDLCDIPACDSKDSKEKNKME

Row | Binder | Response | koff
33 | B4 | 0.617 | 0.000152 s⁻¹
34 | B6 | 0.601 | 9.38e-05 s⁻¹
35 | B7 | 0.288 | 0.00498 s⁻¹

The binders below were run against T2, human ROR1 (hROR1) on cells (assay: cell-based or functional assay).

Row | Binder | endocytosis EC50(nM) (a-hFc-MMAF killing, CTG luminescence)
36 | B1 | 0.149 nM

The binders below were run against T2, human ROR1 (hROR1) on cells (assay: FACS, A549 cells).
Protocol: as §3

Row | Binder | MAX(MFI)
37 | B1 | 4330 MFI
38 | B3 | 4240 MFI
39 | B4 | 4630 MFI
40 | B5 | 3930 MFI
41 | B6 | 3960 MFI
42 | B7 | 3890 MFI
43 | B12 | 4750 MFI

Each binder was assayed against T2, human ROR1 (hROR1) on cells (assay: FACS, HEK293T-hROR1 cells).

Row | Binder | MFI
44 | B4 | 50900 MFI
45 | B6 | 43100 MFI
46 | B7 | 43800 MFI

These binders were tested against T5, cynomolgus ROR1 (cynoROR1) on CHO-K1 cells (cynomolgus, UniProt A0A2K5WTX7 30-937) (assay: flow cytometry (FACS) on CHO-K1-cynoROR1 cells, antibody 0.01-100 nM, median fluorescence intensity).
T5 construct: whole, on cells; also called CHO-K1-cynoROR1; CHO-K1-cyROR1
Protocol: as §3

Row | Binder | EC50 (read off the curve)
47 | B2 | ~1 nM
48 | B8 | ~0.9 nM
49 | B9 | ~2 nM
50 | B10 | ~1 nM
51 | B11 | ~0.7 nM

The binders below were run against T4, ROR1 (antigen of the KD determination …) (assay: method not stated (conventional procedures)).

Row | Binder | Kd | koff | kon
52 | B1 | 2.21 nM | 0.000927 s⁻¹ | 419000 M⁻¹ s⁻¹
53 | B2 | 1.27 nM | 0.000342 s⁻¹ | 270000 M⁻¹ s⁻¹
54 | B3 | 0.839 nM | 0.000291 s⁻¹ | 347000 M⁻¹ s⁻¹
55 | B4 | 0.81 nM | 0.000287 s⁻¹ | 354000 M⁻¹ s⁻¹
56 | B5 | 2 nM | 0.000637 s⁻¹ | 320000 M⁻¹ s⁻¹
57 | B6 | 1.2 nM | 0.000376 s⁻¹ | 314000 M⁻¹ s⁻¹
58 | B7 | 1.69 nM | 0.000519 s⁻¹ | 307000 M⁻¹ s⁻¹
59 | B8 | 1.53 nM | 0.000512 s⁻¹ | 336000 M⁻¹ s⁻¹
60 | B9 | 14.9 nM | 0.00646 s⁻¹ | 433000 M⁻¹ s⁻¹
61 | B10 | 1.45 nM | 0.000423 s⁻¹ | 292000 M⁻¹ s⁻¹
62 | B11 | 3.01 nM | 0.00117 s⁻¹ | 389000 M⁻¹ s⁻¹
63 | B12 | 1.67 nM | 0.00075 s⁻¹ | 448000 M⁻¹ s⁻¹

Molecular target: T2, human ROR1 (hROR1) on cells
Assay: cell-based or functional assay
Remark: another data set of the same source

Row | Binder | ADCC Cytotoxicity (%), Donor 1, 1 nM | ADCC Cytotoxicity (%), Donor 1, 10 nM | ADCC Cytotoxicity (%), Donor 2, 1 nM | ADCC Cytotoxicity (%), Donor 2, 10 nM
64 | B1 | 30.5% | 42.3% | 14.1% | 21.5%
65 | B3 | 25.7% | 29% | 14.1% | 14.2%
66 | B5 | 33.7% | 39.5% | 21.9% | 26.1%

Molecular target: T1, hROR2ECD-his
Assay: ELISA, plate coated with hROR2 ECD-his
Remark: another data set of the same source
Protocol: as §1, §2

Row | Binder | ELISA signal (called MFI)
67 | B1 | 0.031
68 | B2 | 0.0265
69 | B3 | 0.0285
70 | B4 | 0.0305
71 | B5 | 0.038
72 | B6 | 0.024
73 | B7 | 0.031
74 | B8 | 0.03
75 | B9 | 0.027
76 | B10 | 0.042
77 | B11 | 0.025
78 | B12 | 0.0305

Molecular target: T2, human ROR1 (hROR1) on cells
Assay: FACS, HEK293T-hROR1 cells
Remark: another data set of the same source
Protocol: as §3

Row | Binder | fold lower EC50 than reference PR000374
79 | B1 | 10 fold
80 | B2 | 10 fold
81 | B3 | 10 fold
82 | B4 | 10 fold
83 | B5 | 10 fold
84 | B6 | 10 fold
85 | B7 | 10 fold
86 | B8 | 10 fold
87 | B9 | 10 fold
88 | B10 | 10 fold
89 | B11 | 10 fold
90 | B12 | 10 fold

What follows are binders tested against T2, human ROR1 (hROR1) on cells (assay: FACS, HEK293T-hROR1 cells; cytometer saturated).
Protocol: as §3

Row | Binder | MAX(MFI)
91 | B1 | 262000 MFI
92 | B3 | 262000 MFI
93 | B4 | 262000 MFI
94 | B5 | 262000 MFI
95 | B6 | 262000 MFI
96 | B7 | 262000 MFI
97 | B12 | 262000 MFI

The binders below were run against T5, cynomolgus ROR1 (cynoROR1) on CHO-K1 … (assay: FACS, CHO-K1-cynoROR1 cells).
Protocol: as §3

Row | Binder | MAX(MFI)
98 | B1 | 29000 MFI
99 | B3 | 30000 MFI
100 | B4 | 29700 MFI
101 | B5 | 27200 MFI
102 | B6 | 18200 MFI
103 | B7 | 22200 MFI
104 | B12 | 23300 MFI

What follows are binders tested against T2, human ROR1 (hROR1) on cells (assay: flow cytometry (FACS) on HEK293T-hROR1 cells, antibody 0.01-100 nM, median fluorescence intensity).
Protocol: as §3

Row | Binder | EC50 (read off the curve)
105 | B2 | ~2 nM
106 | B8 | ~3 nM
107 | B9 | ~3 nM
108 | B10 | ~3 nM
109 | B11 | ~3 nM
